From US20250355001A1, “METHOD FOR DETECTING A TAU PROTEIN FRAGMENT IN A SAMPLE” (GTINVENT LIMITED, priority 2022, published 2025)

B1: 3aD3: N-terminal anti-tau clone, Table 6; SEQ ID NO: 422 (protein)
chain: QVQLQESGPSLVKPSQTLSLTCTVSGFSLTSNGVGWVRRAPGKVPEWVGDISSGGKVYGHPALKSRLSITRDTSKSQVSLSVSSVTSEDTAVYYCVRCRDGGVSYGYDSDYWGPGLLVTVSSEGKSSGASGESKVDDQAVVTQPSSVSKSLGQSVSITCSGSSSNVGYGDYVGWFQQVPGSAPKLLIYGVTERASGVPDRFSGSRSGNTATLTISSIQAEDEADYYCASYDDSSGGIFGSGTRLTVLG
modifications: 3aD3 amino acid sequence
B2: 3bF4: anti-tau clone, Table 7; SEQ ID NO: 421 (protein)
chain: QVQLQESGPSLVKPSQTLSLTCTVSGFSLSSNGVGWVRQAPGKVPEWLGDISSVGKKYANPALKSRLSFTRDTSKSQVSLSLSSVTTEDTAVYYCVKCRDGGVTYGYDIDYWGPGLLVTVSSEGKSSGASGESKVDDQAVLTQPSSVSKSTGQTVSITCSGSSSNVGLRNYVTWFQQVPGSAPKLLIYGATSRASGIPDRFSGSRSGNTATLIISSLQAEDEADYYCASADTNDGGVFGSGTRLTVLG
modifications: 3bF4 amino acid sequence
B3: 3aB7: anti-tau clone, Table 7; SEQ ID NO: 420 (protein)
chain: QVQLQESGPSLVKPSQTLSLTCTVSGFSLTSNGVGWVRQAPGKVPEWVGDKSSAGKTYGNPALKSRLSITRDTSKSQVSLSLSSVTTEDTAVYYCVRCRDGGVTYGYDVDYWGPGLLVTVSSEGKSSGASGESKVDDQAVLTQPSSVSKSLGQSVSITCSGSSSNVGYGDVVSWFQQFPGSAPKLLIFGTTTRASGVPDRFSGSRSGNAATLTINSLQAEDEADYYCASFDSDSGGIAGSGTRLTVLG
modifications: 3aB7 amino acid sequence
B4: 3aA6: anti-tau clone, Table 8; SEQ ID NO: 418 (protein)
chain: QVRLQESGSSLVKPSQTLSLVCTVSGFPLTSNAVGWVRQAPGKAPEWLGLIDIDGDTAYNPALESRLSITRDTSKSQVSLSLSSVAIEDTAVYYCARHYDKWGYADSIDYWGPGLLVTVSSEGKSSGASGESKVDDQALLTQPSSVFGSLGQRVSITCSGSSSNVGYGDYVGWYQQVPGSAPKLLIYDATTRASGVPDRFSGSRSGNTATLTISSLQAEDEADYYCASYQNERSGVFGSGTRLTVLG
modifications: 3aA6 amino acid sequence
B5: MD9: anti-tau clone, Table 10; SEQ ID NO: 373 (protein)
scFv: QVRLQESGPSLVKSSQTLSLTCTVSGFSLTRESIAWVRQAPGKVPEWLGGVGIDGTSYYSPALKSRLSITRDTSKSQASLSLSSVATEDTAMYYCARNYIDFEYWGPGLLVTVSSEGKSSGASGESKVDDQAVLTQLSSVSGSLGQRISITCSGSSSNVGIYDVSWFQQLPGSGLRTVIYGTNNRPSGVPDRFSGSRSGNTATLTISSLQSEDEAIYYCAAGDSSTIAVFGSGTRLTVLG
modifications: MD9 amino acid sequence
B6: 3bD11: anti-tau clone, Table 10; SEQ ID NO: 637 (protein)
scFv: RVRLQGSGPSLVKPSQTLSLTCTVSGFSFDSYYVGWVRQAPGKALEWLGNIYSTGRAFYNPALKSRLSITRDTSKSQVSLSVSSVTIEDTALYYCVRGSYYHGGGNGMVDFFDYWSPGLLVTVSSEGKSSGASGESKVDDQVVRTQPSSVSGSLGQRVSITCSGSSSNVGYGNYVGWFQQVPGSAPKLLIYAATSRASGVPDRFSGSRSGNTATLTIDSLQAEDEADYYCSSYQRGNTGVFGSGTRLTVLG
B7: C-E3 (protein)
CDR 1: SNAVG
CDR 2: GCSSDGKCYYNSALKS
CDR 3: GYYPVYGYDYLGTIDY
CDR 4: SGSSSNVGRNDVA
CDR 5: GTTSRPS
CDR 6: ASGDSSAINDI
modifications: VHCDR1 ME12, NS3D9; VHCDR1 S1D2, S1H6, S2C3; VHCDR1 MC5, MD12; VHCDR1 3aA6, VHCDR1 CE3; VHCDR2 NS3D9, CE3; VHCDR3 NS3D9, CE3; VLCDR1 NS3D9, CE3; VLCDR2 NS3D9, CE3; VLCDR3 NS3D9, CE3
B8: C-A9 (protein)
scFv: QVQLQESGPSLVKPSQTLSLTCTVSGFSLTSNSVGWVRQAPGKAPEWVAGIDTDGEEGYNPALNSRLSITRDTSKSQVSLSLSSVTSEDTAVYYCGRSYRSDGLAYGYVQAIDYWGPGLLVTVSSEGKSSGASGESKVDDQAVLTQPASVSGSLGQRVSITCSGSFIGISSVGWFQQLPGSGLRTIIVASDGRPSGVPDRFSMSKSGNTATLTISSLQAEDEADYFCGSSDRTQYTGVFGSGTRLTVLG
modifications: left off: small tags and cut ends
B9: S-1D12 (protein)
CDR 1: NNAVG
CDR 2: GCSSDGTCYYNSALKS
CDR 3: GHYSIYGYDYLGTIDY
CDR 4: SGSSSNVGGGNSVG
CDR 5: DTNSRPS
CDR 6: VTGDSTTHDDL
modifications: VHCDR1 S1D12, S2C1; VHCDR2 S1D12, S2C1; VHCDR3 S1D12; VLCDR1 S1D12, ME12; VLCDR2 S1D12; VLCDR3 S1D12
B10: C-B3 (protein)
scFv: QVQLQESGPSLVKPSQTLSLTCTVSGFSLSSVAVNWVRQAPGKVPEWLGGIISNGGTGYNPALKSRLSITRDTSKSQVSLALTHVTTEDTAVYYCGRGVEWEGSMDYLGPGLLVTVSSEGKSSGSGSETKVDDQSVLTQPSSVSGFLGQRVTITCSGSSSNVGAGSYVGWYQQVPGSGLRILIYGATKRASGLPDRFSGSRSGNTATLTISSLQAEDEADYYCVSYQTDFTLVFGSGTRLTVLG
modifications: left off: small tags and cut ends

Tests used:
[1] = system: hT40, dGA, dGAE and truncated tau fragments; test: Binding ELISA / epitope mapping of anti-tau scAbs with truncated tau proteins and 13mer peptides; parameters: species or system human; details: for Short epitope on hT40: Table 18, '3a' & '3b' series scAbs; for hT40 binding region: second Table 25, mAb format; for Binding regions on hT40: Table 33, core binding scAbs tested in epitope occlusion assays
Experimental: A series of binding ELISA was performed using various truncated versions of the tau protein and 13mer peptide libraries spanning the entire hT40 molecule for mapping the epitopes of anti-tau scAbs (Full list of protein antigens used is given in Table 14). In general, ELISA plates were coated with 1 μg/ml hT40 or dGA or dGAE or other truncated versions of the protein and in the case of biotinylated peptides, plates were coated with 5 μg/ml Streptavidin followed by 1 μg/ml biotinylated peptide. The plates were blocked with 2% MPBS and scAb samples added at desired starting concentrations and double diluted across the plate. Binding was detected using anti-Human C Kappa HRP conjugated secondary antibody and the resulting immunoreaction was developed and absorbance values measured as described above.
Selected E specific scAbs and their specific binding to dGAE is shown below (FIG. 8A-E).
Similarly, dGA binding ‘NS’, ‘S’ and ‘M’ group scAbs were subjected to further antigen binding ELISA using shorter tau proteins and biotinylated 13mer peptides as shown below (FIG. 10A-F) and (FIG. 11A-R).

[2] = target: T1, hT40 (T441, SEQ ID NO: 1) (Homo sapiens, UniProt P10636); test: Biacore X100 SPR kinetics of scAbs for hT40; assay type: binding; details: Table 25; '3a' and '3b' scAbs, hT40
T1 construct: Full length tau (hT40)
Experimental: Surface plasmon resonance (SPR) is widely regarded as the gold standard for real time measurement of protein-protein interactions such as antibody binding. All SPR experiments were carried out using a Biacore X100 machine and HBS EP+ running buffer (GE Healthcare). A ‘capture’ method was followed for affinity measurements, where an anti-human constant kappa chain (HuCk) antibody was conjugated to the surface of a CM5 sensor chip using an amine coupling kit and scAb molecules were immobilised via their HuCk domain. Amine coupling is a very common approach for immobilising the ligand to the chip surface. […] The capture antibody was diluted 1/100 in 10 mM Sodium acetate buffer pH 5.0 and passed over the activated chip surface for a period of at least 420 s. Final ligand immobilisation levels over 12,000 RU were deemed to be satisfactory.
Following immobilisation, the level of each scAb to be captured was identified using the standard SPR equation with a theoretical RMax of 100 RU. Analyte MW refers to the molecular weight of hT40 or dGA/dGAE molecules, while ligand MW refers to the molecular weight of the scAbs tested. RL is the desired capture level and S refers to the stoichiometric ratio:
The scAb to be tested was added only to flow cell 2 so that flow cell 1 could act as a control to subtract any interaction with the analyte and the chip surface. Both single and multi-cycle runs were utilised using wizards developed in the Biacore X100 control software which are both accepted methods of kinetic analysis (Karlsson, R., et al. Analyzing a kinetic titration series using affinity biosensors (2006) Analytical Biochemistry 349:136-47). The multi-cycle protocol was as follows-Three start-up cycles composed of an initial capture, to the desired level, of the scAb to be tested was performed followed by a 30 s injection of glycine buffer pH 2.0 after each cycle to regenerate the chip surface. […] Following three start-up cycles increasing concentrations (0.15625 nM-100 nM) of the target to be tested were added to the chip surface after the desired scAb capture. The target was added for a 120 s association period and 420 s dissociation period followed by another regeneration, 30 s injection of glycine buffer pH 2.0 in between each cycle.
The single cycle kinetics protocol was similar and utilised the same level of scAb capture. Three start-up cycles were used followed by 5 increasing concentrations of the analyte (6.25 nM-100 nM) for an association period of 120 s followed by a dissociation period of 420 s for each concentration. In single cycle kinetics the regeneration step was performed only after the final analyte concentration was added. Binding responses were analysed in Biacore X100 evaluation software and data fitted to a 1:1 binding model to obtain kinetic and affinity characterisation.

htau40 = target: T2, htau40 (Homo sapiens, UniProt P10636); test: Biacore X100 SPR kinetics of anti-tau mAbs on immobilised htau40; assay type: binding; details: second Table 25; newly converted mAbs, hT40
T2 construct: Full length tau (hT40)
Experimental: For anti-tau mAb SPR measurements, htau40 was conjugated to the surface of a CM5 sensor chip using amine coupling as explained previously. Briefly, 2 μg/mL htau40 in 10 mM Sodium acetate buffer (pH 4.0) was passed over the activated chip surface (EDC/NHS) in flow cell 2 for a period for 45 s followed by blocking with 1 M ethanolamine-HCl PH 8.5. Flow cell 1 was set up as reference control and blocked simultaneously. Final immobilisation level of htau40 (Rmax) was approximately 250 RU. Following a minimum of three start-up cycles, increasing concentrations (0.78 nM-25 nM) of the mAb in HBS-EP+ buffer was added at a rate of […] to the chip. The mAb was added for a 120 s association period and 600 s dissociation period followed by a regeneration cycle of 30 s injection of glycine buffer pH 1.5 in between each cycle. Binding responses were analysed in Biacore X100 evaluation software and data fitted to a 1:1 binding model to obtain kinetic and affinity characterisation.
For anti-tau mAb SPR measurements (Biacore X100™) and epitope mapping, the same methodologies described above (see Example 16) were followed. Kinetic rates and equilibrium binding constants of additional anti-tau mAbs and the regions recognised on hT40 are given in the Table 25 below

[3] = residue numbers of SEQ ID NO: 1 (hT40), CDR Tables 1-11

T2 sequence (P10636 1-441 isoform P10636-8): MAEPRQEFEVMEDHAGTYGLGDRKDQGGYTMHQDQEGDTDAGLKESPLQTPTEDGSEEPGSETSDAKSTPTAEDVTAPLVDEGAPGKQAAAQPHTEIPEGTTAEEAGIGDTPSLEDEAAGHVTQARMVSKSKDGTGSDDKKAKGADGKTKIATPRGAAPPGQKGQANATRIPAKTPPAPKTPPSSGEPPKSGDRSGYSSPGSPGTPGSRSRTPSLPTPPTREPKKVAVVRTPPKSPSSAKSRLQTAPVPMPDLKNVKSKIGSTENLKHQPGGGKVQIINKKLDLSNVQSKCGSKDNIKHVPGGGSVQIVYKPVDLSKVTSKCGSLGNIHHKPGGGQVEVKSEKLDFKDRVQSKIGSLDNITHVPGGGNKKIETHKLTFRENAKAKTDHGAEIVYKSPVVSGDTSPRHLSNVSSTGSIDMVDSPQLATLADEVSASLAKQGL
T1 sequence (P10636 1-441 isoform P10636-8): as above

| Molecule | Short epitope on hT40 [1] | Epitope [1, 3] | ka [2] | kd [2] | Binding regions on hT40 [1] | further results |
| --- | --- | --- | --- | --- | --- | --- |
| B1 | 1-49 | 1-49 | 544400 M⁻¹ s⁻¹ | 0.01038 s⁻¹ | – | – |
| B2 | 49-111 | 49-111 | 109300 M⁻¹ s⁻¹ | 0.01532 s⁻¹ | – | – |
| B3 | 49-111 | 49-111 | 207200 M⁻¹ s⁻¹ | 0.01435 s⁻¹ | – | – |
| B4 | 147-157 | 147-157 | 19000 M⁻¹ s⁻¹ | 0.0188 s⁻¹ | – | – |
| B5 | – | 373-385 | – | – | – | Tau proteins/fragments with positive scAb reactivity ([1]; Table 16, NS, S and M clones, binding ELISA): hT40, 297-390 (dGA), 297-391 (dGAE), 369-390, 369-391; Shortest region bound on hT40 ([1]; Table 16, NS, S and M clones, incl. 13mer peptides): 373-385; Epitope ([1]; Table 26 summary, top scAbs, residues of hT40): 373-385; hT40 binding region [1]: 373-385; ka (htau40): 66200 M⁻¹ s⁻¹; kd (htau40): 0.001462 s⁻¹ |
| B6 | – | 37-49 | – | – | – | hT40 binding region [1]: 37-49; ka (htau40): 2.671e+06 M⁻¹ s⁻¹; kd (htau40): 0.003979 s⁻¹ |
| B7 | – | – | – | – | 297-356 | – |
| B8 | – | – | – | – | 367-379 | – |
| B9 | – | – | – | – | 337-355 | – |
| B10 | – | – | – | – | 360-390 | – |
